Laboratory results: PMC6436931, “Activation of the Endonuclease that Defines mRNA 3′ Ends Requires Incorporation into an 8-Subunit Core Cleavage and Polyadenylation Factor Complex” (Molecular Cell, 2019)

T1: Hrp1 (CF IB) (Saccharomyces cerevisiae, UniProt Q99383 1-534)
T1 sequence: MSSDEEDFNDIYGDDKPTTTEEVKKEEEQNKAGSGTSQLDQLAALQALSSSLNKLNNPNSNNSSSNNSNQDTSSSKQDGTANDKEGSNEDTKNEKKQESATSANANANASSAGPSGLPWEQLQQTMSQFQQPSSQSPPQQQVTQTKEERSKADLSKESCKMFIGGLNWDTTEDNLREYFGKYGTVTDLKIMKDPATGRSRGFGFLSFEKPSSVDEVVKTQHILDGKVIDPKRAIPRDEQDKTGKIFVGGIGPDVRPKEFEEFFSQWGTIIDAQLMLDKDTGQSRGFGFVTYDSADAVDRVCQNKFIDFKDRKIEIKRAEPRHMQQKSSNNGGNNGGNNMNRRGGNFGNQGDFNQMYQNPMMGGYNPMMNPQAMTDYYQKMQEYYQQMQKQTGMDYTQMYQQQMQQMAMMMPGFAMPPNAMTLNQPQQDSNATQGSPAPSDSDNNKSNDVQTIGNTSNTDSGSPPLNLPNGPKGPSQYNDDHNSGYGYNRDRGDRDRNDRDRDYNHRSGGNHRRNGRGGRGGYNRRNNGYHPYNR

T2: Cft2 (Saccharomyces cerevisiae, UniProt Q12102 1-859)
T2 sequence: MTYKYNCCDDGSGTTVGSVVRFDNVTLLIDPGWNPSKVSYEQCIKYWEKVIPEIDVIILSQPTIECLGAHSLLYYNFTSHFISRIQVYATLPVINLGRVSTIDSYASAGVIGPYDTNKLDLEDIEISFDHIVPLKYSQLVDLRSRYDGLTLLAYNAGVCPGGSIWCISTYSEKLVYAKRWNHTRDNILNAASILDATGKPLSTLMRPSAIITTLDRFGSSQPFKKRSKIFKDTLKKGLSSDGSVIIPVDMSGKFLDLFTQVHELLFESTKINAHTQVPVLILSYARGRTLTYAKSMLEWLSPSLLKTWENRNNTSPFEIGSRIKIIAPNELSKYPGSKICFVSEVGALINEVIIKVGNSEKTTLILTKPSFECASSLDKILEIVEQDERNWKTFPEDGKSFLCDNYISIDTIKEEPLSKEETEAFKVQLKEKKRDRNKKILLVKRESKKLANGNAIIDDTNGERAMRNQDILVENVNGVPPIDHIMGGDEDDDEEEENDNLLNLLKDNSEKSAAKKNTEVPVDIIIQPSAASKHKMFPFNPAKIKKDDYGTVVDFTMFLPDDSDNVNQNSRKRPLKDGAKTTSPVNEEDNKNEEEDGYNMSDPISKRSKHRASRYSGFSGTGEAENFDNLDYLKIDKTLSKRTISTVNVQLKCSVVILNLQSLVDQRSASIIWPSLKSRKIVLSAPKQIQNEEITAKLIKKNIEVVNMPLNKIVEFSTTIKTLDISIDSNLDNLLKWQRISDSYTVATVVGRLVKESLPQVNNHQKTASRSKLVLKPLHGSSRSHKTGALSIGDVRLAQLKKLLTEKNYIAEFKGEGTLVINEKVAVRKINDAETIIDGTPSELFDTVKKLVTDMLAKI

B1: U15 (ssRNA)
RNA: UUUUUUUUUUUUUUU
B2: CYC1d EMSA probe (ssRNA)
RNA: AAGAACGUUAUUUAUAUUUCAAAUUUUUCUUUUUU
B3: C15 (ssRNA)
RNA: CCCCCCCCCCCCCCC
B4: CYC1f EMSA probe (ssRNA)
RNA: CGUUAUUUAUAUUUCAAAUUUUUCU
B5: G15 (ssRNA)
RNA: GGGGGGGGGGGGGGG
B6: A15 (ssRNA)
RNA: AAAAAAAAAAAAAAA
B7: Rna14-Rna15 complex (6H-Rna14-Rna15) (complex, S. cerevisiae)
chain 1: MSSSTTPDLLYPSADKVAEPSDNIHGDELRLRERIKDNPTNILSYFQLIQYLETQESYAKVREVYEQFHNTFPFYSPAWTLQLKGELARDEFETVEKILAQCLSGKLENNDLSLWSTYLDYIRRKNNLITGGQEARAVIVKAFQLVMQKCAIFEPKSSSFWNEYLNFLEQWKPFNKWEEQQRIDMLREFYKKMLCVPFDNLEKMWNRYTQWEQEINSLTARKFIGELSAEYMKARSLYQEWLNVTNGLKRASPINLRTANKKNIPQPGTSDSNIQQLQIWLNWIKWERENKLMLSEDMLSQRISYVYKQGIQYMIFSAEMWYDYSMYISENSDRQNILYTALLANPDSPSLTFKLSECYELDNDSESVSNCFDKCTQTLLSQYKKIASDVNSGEDNNTEYEQELLYKQREKLTFVFCVYMNTMKRISGLSAARTVFGKCRKLKRILTHDVYVENAYLEFQNQNDYKTAFKVLELGLKYFQNDGVYINKYLDFLIFLNKDSQIKTLFETSVEKVQDLTQLKEIYKKMISYESKFGNLNNVYSLEKRFFERFPQENLIEVFTSRYQIQNSNLIKKLELTYMYNEEEDSYFSSGNGDGHHGSYNMSSSDRKRLMEETGNNGNFSNKKFKRDSELPTEVLDLLSVIPKRQYFNTNLLDAQKLVNFLNDQVEIPTVESTKSG
chain 2: MNRQSGVNAGVQNNPPSRVVYLGSIPYDQTEEQILDLCSNVGPVINLKMMFDPQTGRSKGYAFIEFRDLESSASAVRNLNGYQLGSRFLKCGYSSNSDISGVSQQQQQQYNNINGNNNNNGNNNNNSNGPDFQNSGNANFLSQKFPELPSGIDVNINMTTPAMMISSELAKKPKEVQLKFLQKFQEWTRAHPEDAVSLLELCPQLSFVTAELLLTNGICKVDDLIPLASRPQEEASATNNNSVNEVVDPAVLNKQKELLKQVLQLNDSQISILPDDERMAIWDLKQKALRGEFGAF
notes: Rna14, S. cerevisiae; Rna15, S. cerevisiae; The pull-down methods call the prey 'untagged' though the construct carries a His6 tag; also called Rna14–15; source: E. coli BL21 Star (DE3), purified as described previously (Gordon et al., 2011)

Biological target: T1, Hrp1 (CF IB)
Experiment: EMSA; EMSA: 50 nM RNA, 0.25-4.0 uM protein, protein diluted in 10 mM HEPES pH 7.9, 150 mM NaCl, 0.5 mM Mg(OAc)2, plus 1x loading dye (orange G, glycerol, EDTA); 30 min on ice; native 6% acrylamide/TBE PAGE
Details: protein: recombinant; tags: 6H (6H-Hrp1); label: 5'-FAM

Binder	binding result
B1	binds
B2	binds
B3	no binding
B4	binds
B5	binds

Biological target: Pap1 (Saccharomyces cerevisiae, UniProt P29468 1-568)
Experiment: as above
Details: protein: recombinant; tags: SII (Pap1-SII) when alone; untagged in CPFpol and CPFcore; label: 5'-FAM

Sequence of Pap1 (P29468 whole entry): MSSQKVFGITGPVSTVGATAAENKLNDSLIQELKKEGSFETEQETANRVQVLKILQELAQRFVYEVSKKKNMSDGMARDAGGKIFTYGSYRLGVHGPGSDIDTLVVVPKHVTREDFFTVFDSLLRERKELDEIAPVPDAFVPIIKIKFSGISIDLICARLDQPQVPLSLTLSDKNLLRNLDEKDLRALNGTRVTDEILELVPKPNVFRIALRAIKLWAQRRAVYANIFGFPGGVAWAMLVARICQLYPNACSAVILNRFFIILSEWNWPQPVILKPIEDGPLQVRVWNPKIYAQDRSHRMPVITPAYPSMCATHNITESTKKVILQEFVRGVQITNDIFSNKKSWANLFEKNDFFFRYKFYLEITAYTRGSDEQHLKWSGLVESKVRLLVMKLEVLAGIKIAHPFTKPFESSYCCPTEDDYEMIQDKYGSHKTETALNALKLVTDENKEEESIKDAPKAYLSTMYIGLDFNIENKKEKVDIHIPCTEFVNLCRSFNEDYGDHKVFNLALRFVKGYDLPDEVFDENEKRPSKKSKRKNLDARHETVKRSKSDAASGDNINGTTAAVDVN

Binder	binding result
B1	no binding
B2	no binding
B3	no binding
B4	no binding
B6	no binding
B5	no binding

Biological target: T2, Cft2
Experiment: as above
Details: protein: recombinant; tags: SII (Cft2-SII) when alone; untagged in CPFpol+Cft2 and CPFcore; label: 5'-FAM

Binder	binding result
B1	no binding
B2	binds
B3	no binding
B4	binds
B6	no binding
B5	binds

Biological target: T3, CPF_(core): Cft1-Pfs2_(-3C-SII)-Yth1_(-3C-8H)-Fip1-Pap1-Cft2-Ysh1-Mpe1 (S. cerevisiae, UniProt Q06632 1-1357; P42841 1-465; Q06102 1-208; P45976 1-327; P29468 1-568; Q12102 …)
T3 construct: Cft1, S. cerevisiae; Pfs2, S. cerevisiae; Yth1, S. cerevisiae; Fip1, S. cerevisiae; Pap1, S. cerevisiae; Cft2, S. cerevisiae; Ysh1, S. cerevisiae; Mpe1, S. cerevisiae; also called eight-subunit core cleavage and polyadenylation factor complex; source: Sf9, co-expressed from one multi-gene baculovirus construct, purified (StrepTactin, Mono Q, Superose 6); not shown: StrepII, C-terminal, kept; …
Experiment: pull-down; Strep-tagged bait proteins and complexes (100 μL at 1.5 μM) immobilised on Streptactin beads; prey CF IA, CF IB, Rna14-Rna15 or Pcf11-Clp1 (20 μL at 4.0 μM) bound 60 min at 4°C; 10 mM HEPES pH 7.9, 150 mM NaCl, 0.5 mM Mg(OAc)2, 0.05% Tween-20; SDS-PAGE, InstantBlue
Details: both partners purified

binding result	Binder
binds	B7

Biological target: T4, CPFpol (no Pap1): Cft1-Pfs2_(-3C-SII)-Yth1_(-3C-8H)-Fip1 (S. cerevisiae, UniProt Q06632 1-1357; P42841 1-465; Q06102 1-208; P45976 1-327)
T4 construct: Cft1, S. cerevisiae; Pfs2, S. cerevisiae; Yth1, S. cerevisiae; Fip1, S. cerevisiae; also called polymerase module without Pap1; source: Sf9, purified as described previously (Casañal et al., 2017); not shown: StrepII, C-terminal, kept; copies: + + +
Experiment: as above
Details: both partners purified

T4 sequence (Q06632 whole entry, chain 1 of 4): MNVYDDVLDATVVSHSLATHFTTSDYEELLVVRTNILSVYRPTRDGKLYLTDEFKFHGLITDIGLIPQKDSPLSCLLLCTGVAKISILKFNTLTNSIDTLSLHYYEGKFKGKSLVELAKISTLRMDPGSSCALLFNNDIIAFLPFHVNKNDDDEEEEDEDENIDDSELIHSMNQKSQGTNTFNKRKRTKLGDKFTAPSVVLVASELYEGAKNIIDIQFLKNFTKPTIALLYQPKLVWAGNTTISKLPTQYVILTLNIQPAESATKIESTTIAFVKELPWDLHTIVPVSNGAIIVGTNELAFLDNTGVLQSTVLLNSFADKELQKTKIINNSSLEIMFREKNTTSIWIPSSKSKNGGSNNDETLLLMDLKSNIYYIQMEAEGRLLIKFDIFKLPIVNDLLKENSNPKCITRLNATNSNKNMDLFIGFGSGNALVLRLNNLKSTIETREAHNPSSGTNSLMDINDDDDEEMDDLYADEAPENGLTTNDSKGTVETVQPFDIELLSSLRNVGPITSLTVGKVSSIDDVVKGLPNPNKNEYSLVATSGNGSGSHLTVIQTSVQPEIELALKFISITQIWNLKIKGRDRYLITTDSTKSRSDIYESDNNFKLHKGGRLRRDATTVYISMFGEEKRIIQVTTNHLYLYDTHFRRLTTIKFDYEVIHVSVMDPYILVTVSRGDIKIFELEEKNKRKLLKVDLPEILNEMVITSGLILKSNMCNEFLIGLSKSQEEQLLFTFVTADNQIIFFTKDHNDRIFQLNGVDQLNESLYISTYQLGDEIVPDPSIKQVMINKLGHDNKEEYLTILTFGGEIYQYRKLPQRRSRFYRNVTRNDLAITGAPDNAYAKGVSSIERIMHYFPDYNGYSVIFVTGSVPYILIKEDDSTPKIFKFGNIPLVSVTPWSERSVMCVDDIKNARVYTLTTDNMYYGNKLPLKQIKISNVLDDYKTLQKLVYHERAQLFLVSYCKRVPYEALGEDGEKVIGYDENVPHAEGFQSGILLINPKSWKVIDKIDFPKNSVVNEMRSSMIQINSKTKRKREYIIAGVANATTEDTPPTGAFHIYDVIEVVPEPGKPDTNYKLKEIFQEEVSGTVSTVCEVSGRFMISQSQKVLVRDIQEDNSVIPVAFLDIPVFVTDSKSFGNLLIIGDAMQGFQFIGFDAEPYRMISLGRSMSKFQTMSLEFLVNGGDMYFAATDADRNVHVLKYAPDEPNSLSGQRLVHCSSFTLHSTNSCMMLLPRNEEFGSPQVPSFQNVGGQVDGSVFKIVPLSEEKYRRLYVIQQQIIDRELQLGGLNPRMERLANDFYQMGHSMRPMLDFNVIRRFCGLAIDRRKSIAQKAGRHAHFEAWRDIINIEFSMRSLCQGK
T4 sequence (P42841 whole entry, chain 2 of 4): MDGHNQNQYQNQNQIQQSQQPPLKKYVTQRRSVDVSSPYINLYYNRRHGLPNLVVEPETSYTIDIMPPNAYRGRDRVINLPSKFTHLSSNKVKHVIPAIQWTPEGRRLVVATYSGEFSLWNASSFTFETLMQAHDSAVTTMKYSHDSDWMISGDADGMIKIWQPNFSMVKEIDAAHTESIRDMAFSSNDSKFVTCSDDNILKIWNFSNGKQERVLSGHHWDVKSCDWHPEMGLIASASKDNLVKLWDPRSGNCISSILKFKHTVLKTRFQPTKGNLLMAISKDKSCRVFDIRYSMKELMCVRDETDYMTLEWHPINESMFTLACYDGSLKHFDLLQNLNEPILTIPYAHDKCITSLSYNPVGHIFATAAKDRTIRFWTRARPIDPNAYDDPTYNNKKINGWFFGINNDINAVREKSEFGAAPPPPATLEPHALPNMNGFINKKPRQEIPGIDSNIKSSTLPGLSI
T4 sequence (Q06102 whole entry, chain 3 of 4): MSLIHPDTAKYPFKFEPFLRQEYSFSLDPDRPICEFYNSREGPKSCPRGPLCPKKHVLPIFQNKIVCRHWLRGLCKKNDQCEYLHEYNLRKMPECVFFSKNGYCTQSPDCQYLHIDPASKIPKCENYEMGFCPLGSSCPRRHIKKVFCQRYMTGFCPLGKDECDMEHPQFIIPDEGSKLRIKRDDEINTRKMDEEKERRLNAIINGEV
T4 sequence (P45976 whole entry, chain 4 of 4): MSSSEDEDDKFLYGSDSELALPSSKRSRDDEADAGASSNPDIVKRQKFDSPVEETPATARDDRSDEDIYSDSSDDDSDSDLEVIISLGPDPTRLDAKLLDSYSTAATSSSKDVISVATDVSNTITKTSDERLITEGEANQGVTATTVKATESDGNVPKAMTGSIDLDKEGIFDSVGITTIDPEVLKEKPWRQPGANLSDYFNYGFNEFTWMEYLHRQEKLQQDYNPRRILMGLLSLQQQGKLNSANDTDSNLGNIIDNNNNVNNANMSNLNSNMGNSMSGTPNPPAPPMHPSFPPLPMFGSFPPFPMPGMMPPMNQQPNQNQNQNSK

binding result	Binder
binds	B7

Biological target: T5, CPFpol: Cft1-Pfs2_(-3C-SII)-Yth1_(-3C-8H)-Fip1-Pap1 (S. cerevisiae, UniProt Q06632 1-1357; P42841 1-465; Q06102 1-208; P45976 1-327; P29468 1-568)
T5 construct: Cft1, S. cerevisiae; Pfs2, S. cerevisiae; Yth1, S. cerevisiae; Fip1, S. cerevisiae; Pap1, S. cerevisiae; also called polymerase module; source: Sf9, purified as described previously (Casañal et al., 2017); not shown: StrepII, C-terminal, kept; copies: + + + +
Experiment: as above
Details: both partners purified

binding result	Binder
binds	B7
